According to patent US20100196385A1 (AstraZeneca / MedImmune, published 2010):
One block for each binder: values may come before it.

What was measured:
[1] = target: T1, human Dll1 (human, UniProt O00548 18-723); assay: FACS, 15 µg/ml, 293T cells with human Dll1
T1 construct: whole, on cells
T1 sequence (looked up): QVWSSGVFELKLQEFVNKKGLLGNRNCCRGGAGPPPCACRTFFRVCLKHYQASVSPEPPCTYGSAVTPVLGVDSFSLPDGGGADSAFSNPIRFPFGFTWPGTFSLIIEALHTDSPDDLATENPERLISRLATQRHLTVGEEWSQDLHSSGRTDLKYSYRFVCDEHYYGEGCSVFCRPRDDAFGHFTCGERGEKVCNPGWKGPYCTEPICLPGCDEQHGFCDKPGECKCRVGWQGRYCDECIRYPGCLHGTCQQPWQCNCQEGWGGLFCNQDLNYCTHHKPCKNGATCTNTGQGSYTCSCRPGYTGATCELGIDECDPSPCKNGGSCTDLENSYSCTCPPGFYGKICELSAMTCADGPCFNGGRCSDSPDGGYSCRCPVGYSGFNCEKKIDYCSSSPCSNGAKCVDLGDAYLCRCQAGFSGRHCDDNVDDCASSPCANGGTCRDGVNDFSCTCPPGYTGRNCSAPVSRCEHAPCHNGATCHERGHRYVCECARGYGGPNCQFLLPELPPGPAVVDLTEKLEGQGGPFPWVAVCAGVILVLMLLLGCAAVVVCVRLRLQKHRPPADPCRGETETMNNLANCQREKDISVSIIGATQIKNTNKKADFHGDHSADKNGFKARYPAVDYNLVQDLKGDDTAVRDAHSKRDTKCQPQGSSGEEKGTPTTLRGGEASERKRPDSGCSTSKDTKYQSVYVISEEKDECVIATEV
Procedure: (§1) The ability of the purified antibodies to bind to human Jagged1 and Dll1 was determined by FACS analysis. […] Cells were resuspended in PBS containing 2% FCS and seeded at 50000 cells/well into V-bottomed plates. Anti-DLL4 antibodies diluted in PBS containing 2% FCS were added at a final concentration of 5 or 15 μg/ml and plates were incubated for 1 h at 4° C. […] Data was analyzed by comparing the shift in geometric mean fluorescence in the mock-transfected cells to that observed in the Jagged1- or Dll1-transfected cells and is shown in Tables 16 and 17.

[2] = target: T2, full length human DLL4 (human, UniProt Q9NR61 27-685); assay: FMAT, hybridoma supernatant, 293T cells with human DLL4
T2 construct: whole, on cells; also called native DLL4 expressed in HEK293 cells
Procedure: (§2) Cells diluted in PBS containing 2% FBS were seeded at a density of 3000 expressing and 15000 mock transfected cells per well in 384 well plates (Corning Costar, catalog #3712). Immediately after plating, 15 or 20 μl/well of hybridoma supernatants and 10 μl/well of secondary antibody (Goat anti-human IgG Fc Cy5, final concentration 750 ng/ml) were added and plates incubated for 3 h at room temperature prior to reading the fluorescence on the FMAT 8200 instrument (Applied Biosystems). The binding of human Notch1/Fc chimera (R&D systems, catalog #3647-TK), diluted 1:2 from 2.86 μg/ml was used as a positive control for DLL4 and human Notch3/Fc chimera diluted from 10 μg/ml was used a positive control for binding to Jagged1. Results for 12 hybridoma supernatants showing binding of hybridoma supernatants to human/cynomolgus monkey DLL4 and human Jagged are shown in Table 3.

[3] = target: T1, human Dll1; assay: FACS, 15 µg/ml, 293T cells with human Dll1 vs mock
Procedure: as §1

[4] = target: T3, human Jagged1 (human, UniProt P78504 34-1218); assay: FACS, 5 µg/ml, 293T cells with human Jagged1 vs mock
T3 construct: whole, on cells
Procedure: as §1

[5] = target: DLL4 extracellular domain (R&D systems, catalog #1506-D4/CF) (UniProt Q9NR61 27-529, limits assumed); assay: cell-based or functional assay
[6] = target: T2, full length human DLL4; assay: FMAT competition, purified antibody vs Alexa-647 human Notch1/Fc, 293T cells with human DLL4
Procedure: To discriminate between the purified antibodies based upon their ability to prevent the interaction between full-length recombinant DLL4 and soluble Notch1/Fc, the following assays were performed. Transfected and untransfected 239T cells were reconstituted in PBS containing 2% FCS and 5000 transfected and 17500 non-transfected cells were plated in 30 μl into wells of a 384-well tissue culture plate (Corning Costar, catalog #3712). Subsequently, 30 μl of purified antibodies, serial diluted from 5 μg/ml hybridoma supernatant was added and plates were incubated at 4° C. for 1 h, at which time 20 μl of 100 ng/ml Alexa-647 labeled human Notch1/Fc was added. After a further 3 h incubation at 4° C., the amount of bound Notch1/Fc was determined by reading the fluorescence in each well using an FMAT 8200 instrument (Applied Biosystems).

[7] = target: T2, full length human DLL4; assay: FMAT competition, supernatant vs Alexa-647 human Notch1/Fc, 293T cells with human DLL4
Procedure: Transfected and untransfected 239T cells were reconstituted in PBS containing 2% FCS and 5000 transfected and 17500 non-transfected cells were plated in 20 μl into wells of a 384-well tissue culture plate (Corning Costar, catalog #3712). Subsequently, 20 μl of hybridoma supernatant was added and plates were incubated at 4° C. for 1 h, at which time 20 μl of Alexa-647 labeled human Notch1/Fc was added at a final concentration of 6.7 ng/ml. After a further 3 h incubation at 4° C., the amount of bound Notch1/Fc was determined by reading the fluorescence in each well using an FMAT 8200 instrument (Applied Biosystems). Results are expressed as % inhibitions with the minimum inhibition in the assay being determined by the effects of non-DLL4 binding supernatants prepared in a similar way as described in example 2, and the maximum inhibition being defined as the signal obtained in the presence of a saturating concentration of unlabeled Notch1/Fc. N.T.=not tested

[8] = target: T3, human Jagged1; assay: FMAT, hybridoma supernatant, 293T cells with human Jagged1
Procedure: as §2

[9] = target: T3, human Jagged1; assay: FACS, 5 µg/ml, 293T cells with human Jagged1
Procedure: as §1

Chain of DLL4 extracellular domain (R&D systems, catalog #1506-D4/CF) (Q9NR61 27-529 limits assumed): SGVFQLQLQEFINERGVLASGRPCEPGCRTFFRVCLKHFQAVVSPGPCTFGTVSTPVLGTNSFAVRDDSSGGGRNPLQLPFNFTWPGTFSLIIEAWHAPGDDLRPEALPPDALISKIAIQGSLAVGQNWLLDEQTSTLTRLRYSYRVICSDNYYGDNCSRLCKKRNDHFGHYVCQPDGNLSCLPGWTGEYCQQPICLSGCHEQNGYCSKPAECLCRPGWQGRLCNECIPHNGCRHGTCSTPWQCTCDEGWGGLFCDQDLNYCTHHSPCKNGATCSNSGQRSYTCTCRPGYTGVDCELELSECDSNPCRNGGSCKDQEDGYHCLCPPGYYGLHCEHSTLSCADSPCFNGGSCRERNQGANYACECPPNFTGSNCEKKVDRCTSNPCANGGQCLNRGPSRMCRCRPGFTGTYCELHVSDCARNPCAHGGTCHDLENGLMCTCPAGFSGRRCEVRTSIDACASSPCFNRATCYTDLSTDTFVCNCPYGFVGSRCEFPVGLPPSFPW
T2 sequence (Q9NR61 27-685): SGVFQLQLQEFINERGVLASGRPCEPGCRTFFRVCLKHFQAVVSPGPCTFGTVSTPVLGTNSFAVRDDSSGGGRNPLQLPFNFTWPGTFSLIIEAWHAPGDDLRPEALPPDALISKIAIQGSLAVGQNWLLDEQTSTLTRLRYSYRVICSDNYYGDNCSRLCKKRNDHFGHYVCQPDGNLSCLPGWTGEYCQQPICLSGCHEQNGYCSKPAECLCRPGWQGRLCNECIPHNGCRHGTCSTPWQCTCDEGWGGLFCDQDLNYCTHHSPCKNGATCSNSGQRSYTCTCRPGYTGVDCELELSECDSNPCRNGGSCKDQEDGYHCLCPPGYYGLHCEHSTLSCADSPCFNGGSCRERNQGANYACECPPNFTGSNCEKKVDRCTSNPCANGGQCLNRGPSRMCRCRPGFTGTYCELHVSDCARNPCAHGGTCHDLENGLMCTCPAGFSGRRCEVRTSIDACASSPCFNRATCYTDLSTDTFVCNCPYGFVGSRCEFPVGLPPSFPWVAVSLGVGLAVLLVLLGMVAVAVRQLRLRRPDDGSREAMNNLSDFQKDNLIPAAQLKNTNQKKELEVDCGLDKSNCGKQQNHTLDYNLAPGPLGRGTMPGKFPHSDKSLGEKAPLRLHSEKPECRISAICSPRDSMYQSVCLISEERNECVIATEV
T3 sequence (P78504 34-1218): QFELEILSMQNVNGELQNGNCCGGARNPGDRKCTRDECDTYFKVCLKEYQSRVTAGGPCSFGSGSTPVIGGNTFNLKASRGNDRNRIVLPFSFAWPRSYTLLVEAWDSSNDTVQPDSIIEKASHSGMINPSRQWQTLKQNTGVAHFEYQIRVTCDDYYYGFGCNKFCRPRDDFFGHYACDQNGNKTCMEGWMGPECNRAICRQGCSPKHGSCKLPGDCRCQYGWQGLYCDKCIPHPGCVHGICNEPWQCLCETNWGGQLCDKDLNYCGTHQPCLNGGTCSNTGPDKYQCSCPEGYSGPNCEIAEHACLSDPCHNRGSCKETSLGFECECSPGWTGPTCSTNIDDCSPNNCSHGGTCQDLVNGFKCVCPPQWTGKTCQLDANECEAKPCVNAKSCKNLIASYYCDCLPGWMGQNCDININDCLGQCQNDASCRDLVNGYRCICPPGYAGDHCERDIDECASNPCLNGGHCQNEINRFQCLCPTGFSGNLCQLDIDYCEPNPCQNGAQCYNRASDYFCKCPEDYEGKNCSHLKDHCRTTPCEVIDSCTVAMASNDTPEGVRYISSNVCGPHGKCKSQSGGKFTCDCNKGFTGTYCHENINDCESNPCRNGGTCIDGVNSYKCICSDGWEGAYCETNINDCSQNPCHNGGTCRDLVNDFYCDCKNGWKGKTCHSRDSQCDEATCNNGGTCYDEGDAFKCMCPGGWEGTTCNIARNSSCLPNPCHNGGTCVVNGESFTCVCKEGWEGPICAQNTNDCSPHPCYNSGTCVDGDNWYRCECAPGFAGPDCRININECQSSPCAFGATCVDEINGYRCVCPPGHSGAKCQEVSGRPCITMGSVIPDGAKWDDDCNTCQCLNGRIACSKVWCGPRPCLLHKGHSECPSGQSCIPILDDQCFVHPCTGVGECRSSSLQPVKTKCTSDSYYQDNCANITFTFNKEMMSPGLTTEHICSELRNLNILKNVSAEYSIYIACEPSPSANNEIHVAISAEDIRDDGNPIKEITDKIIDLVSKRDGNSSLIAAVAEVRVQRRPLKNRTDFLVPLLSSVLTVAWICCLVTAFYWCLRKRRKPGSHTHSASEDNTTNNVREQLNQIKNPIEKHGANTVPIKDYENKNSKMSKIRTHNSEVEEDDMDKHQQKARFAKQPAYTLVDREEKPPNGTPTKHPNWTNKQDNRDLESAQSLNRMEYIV

Dll1/293T X Geo mean [1]: 35.3 | Count [2]: 196 | FL1 [2]: 10600 | FL1 x count [2]: 2.08e+06 | Dll1/mock ratio [3]: 1.09 | Jagged1/mock ratio [4]: 1.01 | % inhibition 1 µg/ml, AVERAGE (HUVEC proliferation on coated DLL4) [5]: 45% | % inhibition 1 µg/ml, N = 1 (HUVEC proliferation on coated DLL4) [5]: 43% | % inhibition 1 µg/ml, N = 2 (HUVEC proliferation on coated DLL4) [5]: 46% | % inhibition 10 µg/ml, AVERAGE (HUVEC proliferation on coated DLL4) [5]: 72% | % inhibition 10 µg/ml, N = 1 (HUVEC proliferation on coated DLL4) [5]: 73% | % inhibition 10 µg/ml, N = 2 (HUVEC proliferation on coated DLL4) [5]: 71% | % inhibition at 0.020 nM [6]: 7% | % inhibition at 0.070 nM [6]: -2% | % inhibition at 0.21 nM [6]: 5% | % inhibition at 0.62 nM [6]: 13% | % inhibition at 1.9 nM [6]: 58% | % inhibition at 5.6 nM [6]: 124% | % inhibition at 16.7 nM [6]: 123% | IC50 [6]: 2 nM | % inhibition n = 1 [7]: 105% | % inhibition n = 2 [7]: 71% | % inhibition n = 3 [7]: 146% | Mean % inhibition [7]: 107% | Count [8]: 23 | FL1 [8]: 3250 | FL1 x count [8]: 74800 | Jagged1/293T X Geo mean [9]: 16.8
B1: 1D4 (antibody, IgG4, V domains shown)
VH: QLQLQESGPGLVKPSETLSLTCTVSGGSISSSSYYWGWIRQPPGKGLEWIGSFYYSRSTYYNPSLKSRVTISVDTSKNQFSLKLSSVTAADTAVHYCARGSIAVPDAFDIWGQGTMVTVSS
VL: SYELTQPPSVSVSPGQTASITCSGDKLGDKFACWYQQKPGHSPVLVVYQDNKRPSGIPERFSGSNSGNSATLTISGTQAMDEADYYCQAWDSNTAVFGGGTKLTVL
notes: Fully human XenoMouse antibody; also used where no isotype is printed

Dll1/293T X Geo mean [1]: 31.7 | Count [2]: 206 | FL1 [2]: 10400 | FL1 x count [2]: 2.14e+06 | Dll1/mock ratio [3]: 1.15 | Jagged1/mock ratio [4]: 1.13 | % inhibition 1 µg/ml, AVERAGE (HUVEC proliferation on coated DLL4) [5]: 74% | % inhibition 1 µg/ml, N = 1 (HUVEC proliferation on coated DLL4) [5]: 73% | % inhibition 1 µg/ml, N = 2 (HUVEC proliferation on coated DLL4) [5]: 75% | % inhibition 10 µg/ml, AVERAGE (HUVEC proliferation on coated DLL4) [5]: 82% | % inhibition 10 µg/ml, N = 1 (HUVEC proliferation on coated DLL4) [5]: 81% | % inhibition 10 µg/ml, N = 2 (HUVEC proliferation on coated DLL4) [5]: 82% | % inhibition at 0.020 nM [6]: -7% | % inhibition at 0.070 nM [6]: 24% | % inhibition at 0.21 nM [6]: 21% | % inhibition at 0.62 nM [6]: 46% | % inhibition at 1.9 nM [6]: 91% | % inhibition at 5.6 nM [6]: 129% | % inhibition at 16.7 nM [6]: 120% | IC50 [6]: 0.99 nM | % inhibition n = 1 [7]: 98% | % inhibition n = 2 [7]: 99% | % inhibition n = 3 [7]: 113% | Mean % inhibition [7]: 110% | Count [8]: 2 | FL1 [8]: 8020 | FL1 x count [8]: 16000 | Jagged1/293T X Geo mean [9]: 16.9
B2: 1E4 (antibody, IgG2, V domains shown)
VH: QVQLVESGGGVVQPGRSLRLSCAASGFTFSSYGMHWVRQAPGKGLEWVAVTWYDGSNKYYADSVKGRFTISRDNSKNTLYLQMNSLRAEDTAVYYCARENCSSTSCYYTVTTDYYGMDVWGQGTTVTVSS
VL: EIVLTQSPGTLSLSPGERATLSCRASQRVSSSYLTWYQQKPGQAPRLLIYGASIRATGIPDRFSGSGSGTDFTLTITRLEPEDFAVYFCQQCYTSPITFGQGTRLDIK
notes: Fully human; also used where no isotype is printed
